From the supplement of paper PMC12042874
± gives the uncertainty stated by the source.

Assay: amyloid nucleation score (Sup35N fusion, yeast selection) (log enrichment); library NNK3; higher = more nucleation; inactive = no reads after selection
Method in brief: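 After 24 hours of induction with 100 μM copper sulfate, psi-negative yeast expressing peptides of 20 random codons fused to Sup35N were grown for 7 days at 30°C on medium lacking adenine and uracil. Input and output plasmid inserts were sequenced with Illumina, and sequences with under 100 input reads were discarded. Scores for nucleation are the DiMSum log enrichment of output over input reads, centred on the mode score of non-aggregating sequences.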

Row | Substance | amyloid nucleation score
1 | FFLMKDSLLSSVERSIGVIG | inactive
2 | CHILKPWLGVRKPSPFCNYS | inactive
3 | SSPRYVCWNF | inactive
4 | NLMFVLHRTSWSNFCLKRKC | inactive
5 | GNGIFGLSPR | -1.04 ± 1.4
6 | KRSFGRVIRDIDEYRMVRVV | inactive
7 | LFSMSVSASHHWLERSFLTR | inactive
8 | TVASYVNCKRFVLWNYWLFS | inactive
9 | GMDSIWHFDCNLS | 0.094 ± 0.81
10 | SQCRVYN | inactive
11 | LDEIWIKDFSMSSHVAGRHS | inactive
12 | MIIYVKLPYRCLFFERHSDT | inactive
13 | TLKRWLNLDRSSYIRESIKR | inactive
14 | SSLGWFQVSHFRYWNRRCGL | inactive
15 | SHSNKSMRVNALSKWLY | inactive
16 | VLCHKSKWNMH | 0.322 ± 0.26
17 | YCCDLYLN | inactive
18 | HRTTWLIWPLS | inactive
19 | YCLTLNHAMIRFGMCCHYMC | inactive
20 | CRVFDYFSLRVYVTVRYSLF | inactive
21 | ALLESFIKKRSMFLNVNGGF | inactive
22 | SSNLYMSSFWTSMMTWPTNY | inactive
23 | FGDAYM | inactive

Row | Substance | amyloid nucleation score
24 | FNIEASYAPVRCCCKPLLAR | inactive
25 | IWNLWFRTFCT | 0.519 ± 0.25
26 | YVNVSACNNGMLLGWQVG | inactive
27 | FAGCWTVTSMGFCNRSGMKL | inactive
28 | PGWVDHIEAISRTVRGWFGP | 1.77 ± 0.12
29 | QVGVWRNNGYEYYRGRNLRG | inactive
30 | PFTPFSHVR | inactive
31 | KYVSECK | inactive
32 | CLRVICCFWKRPGFDWYLEM | inactive
33 | NCRVMEISIGKAKQSWNFVM | inactive
34 | VNLDTSSGKT | inactive
35 | NLPHRLVTNRMCGAGGFGII | inactive
36 | ISNHLVVEYVRWIKSKLLGR | inactive
37 | FMDYTARVVHLTAQRFMGLW | 0.189 ± 0.43
38 | VYISFGFLILFLFSEFLPCV | inactive
39 | RFYLIKPAI | inactive
40 | TPDQDMLVMPWISYGGGYWR | inactive
41 | YVMDNNFM | inactive
42 | CKVTHSLI | inactive
43 | DSDKNPHGVLSSIGCMYVRS | inactive
44 | FTLWYVFRCVRCNKVCSGTG | 0.087 ± 0.26
45 | TEYRYVLSISCH | inactive
46 | DLFISPKFVQ | inactive

Row | Substance | amyloid nucleation score
47 | GLLAFKVLISKASVDFYNVS | -0.134 ± 0.4
48 | HISWFIFLCGGSFDSVMLAN | inactive
49 | SFSFVQGSVPSTSFGSLKLA | inactive
50 | DLNLVMSSGSRDRLNSLLRR | inactive
51 | VSNYDLESS | inactive
52 | WSFMLFSVSYYNQGEAVLPA | inactive
53 | YRLISCLVFISGRFSN | inactive
54 | GFGHGLKFRPRDRWGSIYPY | inactive
55 | PEMSSSGAKAKYPTSMTS | inactive
56 | NMRGEFQTLANWVWLLQRVL | inactive
57 | RFQFEGREFCLGMLDFNSWI | inactive
58 | AYETFGNCRLVASVIIDGIS | inactive
59 | TYYTGQLNVTEVVFLYISGS | 1.96 ± 0.069
60 | FTYCRASRSITMQYVCVICT | inactive
61 | DYVWADLFCWASGSYLDGEC | inactive
62 | IMYSYNGRLCGTIELSFPGL | 0.814 ± 0.26
63 | SSLPMGFRSVI | inactive
64 | DQGLLRLMDTWLCMGVRQPS | inactive
65 | YRRGYKITSLLSFYGNHRWP | inactive
66 | SVDSREMHSVCCKSLLFGFD | inactive
67 | EYMYIYPPFPMPWDDG | inactive
68 | HSLFIFNFGCL | 2.96 ± 0.054
69 | WWAVTKFTAFYMRVIYKIGR | inactive

Row | Substance | amyloid nucleation score
70 | TRMRTCSKRY | inactive
71 | LMLLIFAWFQILTVRIRLFR | inactive
72 | TGLIWLCESNRMLTVGSSLR | inactive
73 | TVHSIDRVVIIHRLMND | 0.235 ± 0.35
74 | NGRNSRQTVIRIVSRWVVNH | inactive
75 | VRVSPLCIGRPALGQAIAVF | inactive
76 | SGRRCKAICA | inactive
77 | MGDSVFRCLCNTYALLFPPV | inactive
78 | SPLSVGEHSEMWLRLVFG | inactive
79 | AYYKCWNNATDLVTNVPPIH | inactive
80 | ISSPDSTTIRNDVSD | inactive
81 | WFAGGHGKESIINWHYCQYM | inactive
82 | PYLRMG | inactive
83 | SGATVLSLSMY | inactive
84 | GMRCEYMILTFGLSWKLLLI | inactive
85 | LCFNCMS | 2.74 ± 0.076
86 | KHSDL | inactive
87 | VVSLMDTPFD | inactive
88 | RFNCHRMCEHGDTLDMSYN | inactive
89 | DIMLYSWITCIMSSAPPRDN | 1.74 ± 0.11
90 | YGCQSCHGFLCSQFGRPAHS | 0.976 ± 0.21
91 | LVSVVYLEGTGGDYDFFIAT | 2.01 ± 0.079
92 | VCKVCFVERSCVVVVNV | 1.8 ± 0.067

Row | Substance | amyloid nucleation score
93 | RLGTM | inactive
94 | NTPLWAFPEVLSDHNFN | inactive
95 | KSLKTRYSPSVYFDFYLHYG | 1.07 ± 0.15
96 | KSCLCSSTKRKLNRLTYTDR | inactive
97 | IFVLLVRANV | -0.449 ± 0.7
98 | QRYVLSCRALTGDTCWRKSG | inactive
99 | NVLQYYNRLGTSRCIRAAFL | inactive
100 | SGVYLNVIWNCDIGDING | 1.49 ± 0.12
101 | ETRMGTK | inactive
102 | YLNDCDFGVVFEMESKLWTA | inactive
103 | MGMVFHME | inactive
104 | YVVFYHLAVALSLKMASKRI | -0.826 ± 1.9
105 | VFKFALFTGTLLWLDHCVVS | 1.51 ± 0.14
106 | CTECDNSFRPLKNRDTYTAR | 0.046 ± 0.27
107 | YEYYGVKRCIVLG | inactive
108 | VITGLIMMLNCIGFVFRGLA | inactive
109 | ALSLYLISLWYGYSWYLRFD | inactive
110 | DYFEYCRRSKRFPKKDQPVN | -0.638 ± 0.84
111 | GSRVMMCPNT | inactive
112 | LLEQMQGFRLIQSGVHNTLM | inactive
113 | FSLGVWSNPDWVRCSHWFIF | 1.28 ± 0.14
114 | MRGINRIDLLPG | inactive
115 | PIYDRFTSKIACLNMMVDLR | 0.101 ± 0.29

Row | Substance | amyloid nucleation score
116 | GLFLRMLLRADPAKSWENRI | 0.238 ± 0.27
117 | NRSTLYSSLCGYRVRENISW | 1.4 ± 0.097
118 | CMFSLV | inactive
119 | VYGWMVVHVGRLWTWLHRLL | inactive
120 | ELVVTNVNGFLMW | inactive
121 | VTQYMYTT | inactive
122 | VKNVIRGIKAQKVGGDESLC | inactive
123 | HVSSKASLLPMYRY | 0.237 ± 0.75
124 | ICTGDSNNSGYVCQLVTKEE | inactive
125 | YSGTFDFLIKA | inactive
126 | YYVSYN | inactive
127 | SGVSWTRPIWYLNWFTQSLW | inactive
128 | WYGRLGWRLVRPLGRYFTRS | inactive
129 | RVIGKCPHSRNCTPA | inactive
130 | SWFGYSVIDAKYGDIRTPVK | inactive
131 | VGNFLTLSVWDNSGRRIGEE | 0.705 ± 0.19
132 | LVNMHLSLSYGDLSRRQFVN | inactive
133 | LFNGFVDTMESIVSFDNTSY | inactive
134 | LSLFSRSASFSSSLHMAMYH | inactive
135 | TARYIW | inactive
136 | TNIHKTVSMKW | inactive
137 | ALMCIHRLCPNIVPDQ | inactive
138 | LSTYPDI | inactive

Row | Substance | amyloid nucleation score
139 | VQAYLCEYR | inactive
140 | IMEFYERMLFL | inactive
141 | CVVDNRRCLFLYWSLVSFNW | 1.18 ± 0.13
142 | ATCWTLGNDVRFGMRAFTFV | inactive
143 | RHKWLFMWGCFHFNKCASH | inactive
144 | AGSILYGHYLDACGRHSRVI | inactive
145 | FINRVSPYMRSNRSLVGVSS | inactive
146 | FVMGGGNGGHVGYMCFCEEV | inactive
147 | TFSISSGSASYCVSSVDSS | inactive
148 | MPPLNNCLDPYFLVCCNMVY | inactive
149 | VLAKLVFKPYKKGVISQ | inactive
150 | VLVLS | inactive
151 | FSAKDFSNVYRSPSMF | inactive
152 | KRYAYAVVGGWVVGVRKHHG | inactive
153 | RMMNKAADNVMNYNCVCCKS | inactive
154 | CSAFAYRSSWRFAWNTIFDY | inactive
155 | RLGNTGMCV | inactive
156 | VFRAGILESWHRWEGLGVVL | inactive
157 | GPTQIGNLMVTHKSQCSWFN | inactive
158 | SDCYCNSQAVAWLFDRVFVF | inactive
159 | LHCFIAQFMQRYFREWSGNG | inactive
